According to patent US20210292396A1:

Key:
Experiment in all cases: cell-based or functional assay
[1] = target: Env of HIV isolate BG1168.01 (clade B) (HIV)
[2] = target: Env of HIV isolate UG024.2 (clade D) (HIV)
[3] = target: Env of HIV isolate CAP210.E8 (clade C) (HIV)
[4] = target: Env of HIV isolate Q23.17 (clade A) (HIV)
[5] = target: HIV Env of isolate CAP256.206.C9 (HIV)
[6] = target: Env of HIV isolate YU2.DG (clade B) (HIV)
[7] = target: HIV Env of isolate CAP45.G3 (HIV)
[8] = target: Env of HIV isolate 242-14 (clade AG) (HIV)
[9] = target: Env of HIV isolate T251-18 (clade AG) (HIV)
[10] = target: Env of HIV isolate 16055-2.3 (clade C) (HIV)
[11] = target: HIV Env of isolate 6644.v2.c33 (HIV)
[12] = target: Env of HIV isolate BX08.16 (clade B) (HIV)
[13] = target: Env of HIV isolate MN.3 (clade B) (HIV)
[14] = target: HIV Env of isolate 16845-2.22 (HIV)
[15] = target: Env of HIV isolate 3468.v1.c12 (clade AD) (HIV)
[16] = target: HIV Env of isolate ZM197.7 (HIV)
[17] = target: Envelope protein of SVA.MLV (clade NA)
[18] = target: Env of HIV isolate 263-8 (clade AG) (HIV)
[19] = target: Env of HIV isolate ZM55.28a (clade C) (HIV)
[20] = target: Env of HIV isolate 620345.c1 (clade AE) (HIV)
[21] = target: Env of HIV isolate CNE3 (clade AE) (HIV)
[22] = target: Env of HIV isolate RHPA.7 (clade B) (HIV)
[23] = target: Env of HIV isolate BJOX009000.02.4 (clade AE) (HIV)
[24] = target: HIV Env of isolate ZM215.8 (HIV)
[25] = target: Env of HIV isolate 3301.v1.c24 (clade AC) (HIV)
[26] = target: Env of HIV isolate TV1.29 (clade C) (HIV)
[27] = target: Env of HIV isolate 0013095-2.11 (clade C) (HIV)
[28] = target: HIV Env of isolate 6471.v1.c16 (HIV)
[29] = target: Env of HIV isolate C4118.09 (clade AE) (HIV)
[30] = target: Env of HIV isolate ZM106.9 (clade C) (HIV)
[31] = target: Env of HIV isolate Q842.d12 (clade A) (HIV)
[32] = target: Env of HIV isolate R3265.c6 (clade AE) (HIV)
[33] = target: HIV Env of isolate CNE30 (HIV)
[34] = target: HIV Env of isolate DU172.17 (HIV)
[35] = target: Env of HIV isolate T253-11 (clade AG) (HIV)
[36] = target: Env of HIV isolate T255-34 (clade AG) (HIV)
[37] = target: HIV Env of isolate 0013095-2.11 (HIV)
[38] = target: HIV Env of isolate 3326.v4.c3 (HIV)
[39] = target: Env of HIV isolate 0815.v3.c3 (clade ACD) (HIV)
[40] = target: Env of HIV isolate 26191-2.48 (clade C) (HIV)
[41] = target: Env of HIV isolate P1981.C5.3 (clade G) (HIV)
[42] = target: Env of HIV isolate CNE56 (clade AE) (HIV)
[43] = target: Env of HIV isolate BG505.W6M.C2 (clade A) (HIV)
[44] = target: Env of HIV isolate 6644.v2.c33 (clade C) (HIV)
[45] = target: Env of HIV isolate TH976.17 (clade AE) (HIV)
[46] = target: HIV Env of isolate 6838.v1.c35 (HIV)
[47] = target: Env of HIV isolate 6545.v4.c1 (clade AC) (HIV)
[48] = target: Env of HIV isolate 16936-2.21 (clade C) (HIV)
[49] = target: Env of HIV isolate 426c (clade C) (HIV)
[50] = target: Env of HIV isolate QH0692.42 (clade B) (HIV)

B1: ePGT121.18 (ePGT121.18.H1 VH and ePGT121.17.L1 VL) (antibody, V domains shown)
VH: QMQLQESGPGLVKPGETLSLTCSVSGASISSSYWSWLRETPGKGLEWIGYTHHSGDTNYAPSLKSRVHLGLHPSKNQVSLSLTSVTAADTAVYYCARTLHGRRIYGVVAFNEYYTYFYWPTWGKGTQVTVSS
VL: SDISVAPGETVRITCGGESIGSRAVQWYQHRPGQAPRLIIYNNQDRPPGIPERFSGSPDIDFGTTATLTISNVEAGDEATYYCHIWDSRRPTNWELGPGTTLTVL
IC50, pseudovirus neutralization [1]: > 50 µg/mL | IC50, pseudovirus neutralization [2]: 2.36 µg/mL | IC50, pseudovirus neutralization [3]: 0.02 µg/mL | IC50, pseudovirus neutralization [4]: 0.002 µg/mL | IC80, pseudovirus neutralization (M1) [5]: 0.003 µg/mL | IC80, pseudovirus neutralization (M2) [5]: 0.004 µg/mL | IC50, pseudovirus neutralization [6]: 0.003 µg/mL | IC80, pseudovirus neutralization (M1) [7]: 20.6 µg/mL | IC80, pseudovirus neutralization (M2) [7]: 47.5 µg/mL | IC50, pseudovirus neutralization [8]: 17.3 µg/mL | IC50, pseudovirus neutralization [9]: 0.019 µg/mL | IC50, pseudovirus neutralization [10]: 0.011 µg/mL | IC80, pseudovirus neutralization (M1) [11]: 0.005 µg/mL | IC80, pseudovirus neutralization (M2) [11]: 0.006 µg/mL | IC50, pseudovirus neutralization [12]: 0.003 µg/mL | IC50, pseudovirus neutralization [13]: 0.002 µg/mL | IC80, pseudovirus neutralization (M1) [14]: 0.127 µg/mL | IC80, pseudovirus neutralization (M2) [14]: 0.105 µg/mL | IC50, pseudovirus neutralization [15]: 0.001 µg/mL | IC80, pseudovirus neutralization (M1) [16]: > 50 µg/mL | IC80, pseudovirus neutralization (M2) [16]: > 50 µg/mL | IC50, pseudovirus neutralization [17]: > 50 µg/mL | IC50, pseudovirus neutralization [18]: 0.004 µg/mL | IC50, pseudovirus neutralization [19]: 0.005 µg/mL | IC50, pseudovirus neutralization [20]: > 50 µg/mL | IC50, pseudovirus neutralization [21]: > 50 µg/mL | IC50, pseudovirus neutralization [22]: 0.002 µg/mL | IC50, pseudovirus neutralization [23]: 0.042 µg/mL | IC80, pseudovirus neutralization (M1) [24]: 0.023 µg/mL | IC80, pseudovirus neutralization (M2) [24]: 0.026 µg/mL | IC50, pseudovirus neutralization [25]: 0.003 µg/mL | IC50, pseudovirus neutralization [26]: 0.002 µg/mL | IC50, pseudovirus neutralization [27]: 0.537 µg/mL | IC80, pseudovirus neutralization (M1) [28]: 2.94 µg/mL | IC80, pseudovirus neutralization (M2) [28]: 2.62 µg/mL | IC50, pseudovirus neutralization [29]: > 50 µg/mL | IC50, pseudovirus neutralization [30]: 0.001 µg/mL | IC50, pseudovirus neutralization [31]: 0.002 µg/mL | IC50, pseudovirus neutralization [32]: > 50 µg/mL | IC80, pseudovirus neutralization (M1) [33]: 0.013 µg/mL | IC80, pseudovirus neutralization (M2) [33]: 0.016 µg/mL | IC80, pseudovirus neutralization (M1) [34]: 0.005 µg/mL | IC80, pseudovirus neutralization (M2) [34]: 0.005 µg/mL | IC50, pseudovirus neutralization [35]: 0.004 µg/mL | IC50, pseudovirus neutralization [36]: 0.016 µg/mL | IC80, pseudovirus neutralization (M1) [37]: 4.21 µg/mL | IC80, pseudovirus neutralization (M2) [37]: 2.16 µg/mL | IC80, pseudovirus neutralization (M1) [38]: 2.15 µg/mL | IC80, pseudovirus neutralization (M2) [38]: 6.86 µg/mL | IC50, pseudovirus neutralization [39]: 0.001 µg/mL | IC50, pseudovirus neutralization [40]: 0.003 µg/mL | IC50, pseudovirus neutralization [41]: 0.001 µg/mL | IC50, pseudovirus neutralization [42]: > 50 µg/mL | IC50, pseudovirus neutralization [43]: 0.014 µg/mL | IC50, pseudovirus neutralization [44]: 0.002 µg/mL | IC50, pseudovirus neutralization [45]: > 50 µg/mL | IC80, pseudovirus neutralization (M1) [46]: 2.59 µg/mL | IC80, pseudovirus neutralization (M2) [46]: 13.4 µg/mL | IC50, pseudovirus neutralization [47]: > 50 µg/mL | IC50, pseudovirus neutralization [48]: 0.002 µg/mL | IC50, pseudovirus neutralization [49]: 0.065 µg/mL | IC50, pseudovirus neutralization [50]: 0.006 µg/mL
